According to patent publication US12565517B2, “Cyclic peptide having CTLA-4 inhibitory activity and use thereof” (GeneFrontier Corporation, priority 2019, dated 2026):
Where a SMILES comes first, the peptide text is derived from it. Bridges are numbered along the chain shown (N, C = ends). The star is where a group is joined. Biotin = O=C1N[C@H]2[C@H](CS[C@H]2CCCCC(=O)*)N1; PEG4 = NCCOCCOCCOCCOCCC(=O)O

Legend:
CTLA-4 [1] = target: T1, CTLA-4 (Homo sapiens, UniProt P16410); test: Affinity measurement of synthetic biotinylated peptides by BLItz system (peptide on SA sensor chip); assay type: binding
T1 sequence (P16410 36-223): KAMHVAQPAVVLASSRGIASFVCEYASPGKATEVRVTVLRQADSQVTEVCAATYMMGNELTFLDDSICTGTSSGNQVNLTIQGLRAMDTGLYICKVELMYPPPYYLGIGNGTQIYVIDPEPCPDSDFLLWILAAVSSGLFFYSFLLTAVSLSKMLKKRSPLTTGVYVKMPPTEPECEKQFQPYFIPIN
Procedure: Affinity for CTLA-4 was measured using the BLItz system (forte Bio). All operations were performed according to the instruction manual of the BLItz system. The biotinylated peptides were immobilized on the SA sensor chip via streptavidin.

CTLA-4 [2] = target: T1, CTLA-4; test: ELISA binding of clones after Affinity Maturation with random library (Tables 10, 11)
Procedure: After each round of Affinity Maturation, the cyclic peptide genes were recovered and subcloned into pET-Mal vector (FIG. 2) in the same manner as described above to perform base sequence analysis. For the 94 single colonies analyzed for sequence, E. coli transformants were inoculated into 100 μL of 2×YT medium containing ampicillin (final concentration 50 μg/mL), incubated at 37° C. for 3-5 hours (OD600=0.5-0.8), then added with IPTG (final concentration 0.5 mM) and incubated at 25° C. overnight. 10 μL of E. coli cultured medium was added with 90 μL of PBS and 40 μL of lysis reagent (20 μL BugBuster Protein Extraction Reagent (Novagen), 20 μL Lysozyme solution 2.5 mg/mL) to lyse E. coli cells for 1 hour at room temperature. The cell lysate was added with 40 μL of 12.5% skim milk solution (TBST) and blocked for 1 hour at room temperature. In parallel, antigen protein was immobilized overnight at 4° C. in 384-well plates at 100 ng/20 μL per well, and each well was washed twice with 100 μL/well of TBST, added with 100 μL/well of 5% skim milk solution (TBST) for blocking for 1 hour at room temperature, and washed twice with 100 μL/well of TBST to obtain antigen-immobilized plates. 20 μL/well of blocking-treated E. coli extract was added to the antigen-immobilized plates and gently stirred at room temperature using a plate mixer. After 1 hour, the plates were washed 5 times with 100 μL/well of TBST, 20 μL/well of anti-FLAG M2-HRP conjugate (1:2000 dilution, Sigma) was added and gently stirred on a plate mixer for 1 hour at room temperature. The plates were washed 5 times with 100 μL/well of TBST, and binding of cyclic peptides to the antigen was detected by 20 μL/well of chromogenic substrate (0.4 mg/mL 3,3′,5,5′-Tetramethyl-benzidine, 0.01% hydrogen peroxide). After 15 minutes of reaction at room temperature, the reaction was stopped with 20 μL/well of 2N HCl, and absorbance at 450 nm was measured using a plate reader (infinite F200: TECAN) (Table 5).
Oligo DNAs of a library were synthesized (see below), in which amino acid residues (positions 1, 4, 8, 10, +1 and +2) (corresponding to X1, […], X8, X10, X+1 and X+2) other than those essential or advantageous for CTLA-4 binding (2H, 3P, 5L, 6P, 7I, 9S, 11H, 12F) identified by alanine scanning were randomized (NNS).
Affinity Maturation was performed in the same manner as described above. The amount of biotinylated CTLA-4 immobilized on the magnetic beads was 10 pmol in the 1st round, 2 pmol in the 2nd round, and 1 pmol in the 3nd-5th rounds, respectively. The washing period was 2 hours for the 1st round, 19 hours for the 2nd round, 67 hours for the 3nd round, 140 hours for the 4th round, and 340 hours for the 5th round. Washing frequency was 1 time (2 hours) in the 1st round, 2 times (every 10 hours) in the 2nd round, 6 times (every 10 hours) in the 3rd round, 14 times (every 10 hours) in the 4th round, and 36 times (every 10 hours) in the 5th round.

[3] = CTLA-4 binding ELISA of clones after Affinity Maturation from random (NNS) library, signal/noise ratio, clones of 4th or 5th round

Compound | ELISA S/N(SA) (CTLA-4 [2]; [3]) | other results
CSCC[C@@H]1NC(=O)[C@@H](NC(=O)[C@H](CCCCN)NC(=O)CCOCCOCCOCCOCCNC(=O)CCCC[C@@H]2SC[C@@H]3NC(=O)N[C@@H]32)CSSC[C@@H](C(=O)O)NC(=O)[C@H](Cc2ccccc2)NC(=O)[C@H](Cc2c[nH]cn2)NC(=O)[C@H](Cc2c[nH]cn2)NC(=O)[C@H](CO)NC(=O)[C@H](C(C)C)NC(=O)[C@H](C(C)C)NC(=O)[C@H](CC(C)C)NC(=O)[C@H](CC(C)C)NC(=O)[C@H](Cc2ccccc2)NC(=O)[C@@H]2CCCN2C(=O)[C@H](Cc2c[nH]cn2)NC1=O [biotinylated H12SSI-Ctla4-3-02] ({Biotin-PEG4}-KCMHPFLLVVSHHFC-OH; disulfide 2-15; C-terminus assumed) |  | kon (CTLA-4 [1]; read-out: ka): 115000 M⁻¹ s⁻¹; kd (CTLA-4 [1]; synthetic Biotin-PEG4-Lys peptide immobilized, BLItz): 0.022 s⁻¹
C4m#19-5th4w-NN6-7 (GGCRHPFLPIWSWHFCPF; C4m#19-5th4w-NN6-7) | 23.0 | 
C4m#19-5th4w-NN6-69-3 (GGCLHPWLPIVSVHFCAR; C4m#19-5th4w-NN6-69-3) | 24.9 | 
C4m#19-5th4w-NN6-72 (GGCWHPWLPIVSVHFCGC; C4m#19-5th4w-NN6-72) | 4.6 | 
C4m#19-5th2w-NNS6-28 (GGCAHPYLPIRSVHFCPC; C4m#19-5th2w-NNS6-28) | 6.3 | 
C4m#19-5th4w-NN6-59 (GGCLHPHLPIWSLHFCPL; C4m#19-5th4w-NN6-59) | 27.6 | 
C4m#19-5th4w-NN6-74 (GGCFHPFLPIYSWHFCAR; C4m#19-5th4w-NN6-74) | 15.1 | 
C4m#19-5th4w-NN6-92-1 (GGCVHPFLPIRSVHFCAL; C4m#19-5th4w-NN6-92-1) | 30.0 | 
C4m#19-5th4w-NN6-25 (GGCLHPVLPIRSRHFCPV; C4m#19-5th4w-NN6-25) | 38.9 | 
C4m#19-5th4w-NN6-1 (GGCRHPYLPIFSAHFCRS; C4m#19-5th4w-NN6-1) | 16.1 | 
C4m#19-5th2w-NNS6-41 (GGCWHPVLPIRSDHFCCR; C4m#19-5th2w-NNS6-41) |  | ELISA S/N(SA) (CTLA-4 [2]; S/N ratio of CTLA-4 binding in ELISA, clones from 4th or 5th round of Affinity Maturation from random (NNS) library): 3.1
C4m#19-5th2w-NNS6-33 (GGCRHPFLPIWSFHFCWG; C4m#19-5th2w-NNS6-33) | 9.4 | 
C4m#19-5th4w-NN6-94 (GGCLHPFLPIYSLHFCPC; C4m#19-5th4w-NN6-94) | 5.0 | 
C4m#19-5th4w-NN6-45 (GGCRHPWLPIWSVHFCGV; C4m#19-5th4w-NN6-45) | 15.8 | 
C4m#19-5th2w-NNS6-6 (GGCWHPYLPILSLHFCQR; C4m#19-5th2w-NNS6-6) | 10.3 | 
C4m#19-5th4w-NN6-24 (GGCWHPWLPIYSHHFCPI; C4m#19-5th4w-NN6-24) | 27.6 | 
C4m#19-5th4w-NN6-2 (GGCWHPHLPIVSSHFCLF; C4m#19-5th4w-NN6-2) | 18.4 | 
C4m#19-5th2w-NNS6-70 (GGCRHPFLPIVSWHFCAA; C4m#19-5th2w-NNS6-70) | 5.1 | 
C4m#19-5th2w-NNS6-84 (GGCWHPFLPIVSFHFCPF; C4m#19-5th2w-NNS6-84) | 6.4 | 
C4m#19-5th4w-NN6-44 (GGCRHPFLPIVSWHFCGR; C4m#19-5th4w-NN6-44) | 30.1 | 
C4m3127-4th-NNS6-64 (GGCLHPYLPIVSSHFCPF; C4m3127-4th-NNS6-64) [Clone C4m3127-4th-NNS6-64] | 12.9 | 
C4m3127-4th-NNS6-70 (GGCSHPYLPIHSRHFCLS; C4m3127-4th-NNS6-70) [Clone C4m3127-4th-NNS6-70] | 4.6 | 

The next lines start with results.

ELISA S/N(SA) (CTLA-4 [2]; [3]) | Compound | other results
22.1 | C4m#19-5th4w-NN6-11 (GGCRHPFLPIWSHHFCVC; C4m#19-5th4w-NN6-11) | 
33.3 | C4m#19-5th4w-NN6-54 (GGCLHPGLPIRSLHFCPR; C4m#19-5th4w-NN6-54) | 
30.2 | C4m#19-5th4w-NN6-23 (GGCRHPHLPIWSWHFCGR; C4m#19-5th4w-NN6-23) | 
12.5 | C4m#19-5th4w-NN6-65 (GGCWHPFLPILSLHFCSR; C4m#19-5th4w-NN6-65) | 
5.7 | C4m#19-5th4w-NN6-36 (GGCRHPYLPIWSAHFCCR; C4m#19-5th4w-NN6-36) | 
28.9 | C4m#19-5th4w-NN6-93 (GGCCHPWLPIVSTHFCGL; C4m#19-5th4w-NN6-93) | 
34.7 | C4m#19-5th2w-NNS6-14 (GGCWHPFLPIRSYHFCPW; C4m#19-5th2w-NNS6-14) | 
4.1 | C4m3127-4th-NNS6-19 (GGCMHPSLPIWSWHFCPH; C4m3127-4th-NNS6-19) [Clone C4m3127-4th-NNS6-19] | 
5.6 | C4m#19-5th4w-NN6-75 (GGCWHPFLPIKSVHFCCA; C4m#19-5th4w-NN6-75) | 
6.1 | C4m#19-5th2w-NNS6-46 (GGCFHPFLPIFSYHFCGL; C4m#19-5th2w-NNS6-46) | 
4.4 | C4m3127-4th-NNS6-20 (GGCLHPFLPILSLHFCPF; C4m3127-4th-NNS6-20) [Clone C4m3127-4th-NNS6-20] | 
6.6 | C4m3127-4th-NNS6-89 (GGCWHPFLPIFSAHFCMR; C4m3127-4th-NNS6-89) [Clone C4m3127-4th-NNS6-89] | 
21.4 | C4m#19-5th4w-NN6-87 (GGCLHPVLPIRSFHFCWR; C4m#19-5th4w-NN6-87) | 
35.6 | C4m#19-5th4w-NN6-39 (GGCWHPFLPIRSLHFCPR; C4m#19-5th4w-NN6-39) | 
4.4 | C4m#19-5th2w-NNS6-66 (GGCRHPFLPIFSVHFCPF; C4m#19-5th2w-NNS6-66) | 
